Results on 1 molecule are retold here after US20240182536A1.

In assay [1] the target is T1, mouse IL-18 receptors on PathHunter U2OS mIL18-NF-kb reporter cells (mouse) (UniProt Q61098).
T1 sequence (looked up) 1: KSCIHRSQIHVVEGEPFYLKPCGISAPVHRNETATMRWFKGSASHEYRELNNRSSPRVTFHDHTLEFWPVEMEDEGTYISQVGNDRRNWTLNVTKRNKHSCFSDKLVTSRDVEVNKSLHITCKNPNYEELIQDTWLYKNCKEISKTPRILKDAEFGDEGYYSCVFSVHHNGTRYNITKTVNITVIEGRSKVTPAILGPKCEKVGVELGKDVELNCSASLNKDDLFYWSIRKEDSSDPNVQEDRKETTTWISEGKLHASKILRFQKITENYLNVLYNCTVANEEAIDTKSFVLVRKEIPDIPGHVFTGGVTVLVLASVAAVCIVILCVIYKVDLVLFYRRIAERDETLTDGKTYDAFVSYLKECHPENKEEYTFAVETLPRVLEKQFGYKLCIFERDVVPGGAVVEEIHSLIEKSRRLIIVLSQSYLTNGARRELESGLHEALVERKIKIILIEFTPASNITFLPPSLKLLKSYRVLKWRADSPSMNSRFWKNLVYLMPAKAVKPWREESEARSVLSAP
T1 sequence (looked up) 2: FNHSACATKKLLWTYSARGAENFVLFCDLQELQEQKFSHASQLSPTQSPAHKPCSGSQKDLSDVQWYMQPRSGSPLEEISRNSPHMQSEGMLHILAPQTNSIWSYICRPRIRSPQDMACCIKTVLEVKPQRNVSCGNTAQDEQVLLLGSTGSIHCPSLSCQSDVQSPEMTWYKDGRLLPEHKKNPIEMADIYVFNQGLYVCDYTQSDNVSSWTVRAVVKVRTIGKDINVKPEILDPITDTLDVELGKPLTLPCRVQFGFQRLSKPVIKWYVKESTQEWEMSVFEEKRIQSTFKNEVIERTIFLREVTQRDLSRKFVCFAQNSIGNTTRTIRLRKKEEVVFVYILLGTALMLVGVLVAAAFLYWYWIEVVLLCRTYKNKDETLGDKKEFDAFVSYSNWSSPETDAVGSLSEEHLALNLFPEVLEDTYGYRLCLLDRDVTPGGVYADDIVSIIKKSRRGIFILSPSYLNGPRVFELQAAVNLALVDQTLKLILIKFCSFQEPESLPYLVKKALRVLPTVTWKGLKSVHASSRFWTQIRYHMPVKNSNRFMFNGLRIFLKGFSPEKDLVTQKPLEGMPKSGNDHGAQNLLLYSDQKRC
The assay can be described thus: cell-based or functional assay.

The target of assay [2] is T2, mouse IL-18 binding protein (mouse) (UniProt Q9Z0M9).
T2 sequence (looked up): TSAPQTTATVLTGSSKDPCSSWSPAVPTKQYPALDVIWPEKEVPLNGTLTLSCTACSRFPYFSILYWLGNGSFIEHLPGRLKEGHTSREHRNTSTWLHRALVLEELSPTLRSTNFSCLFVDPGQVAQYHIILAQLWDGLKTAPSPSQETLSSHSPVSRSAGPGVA
The assay can be described thus: cell-based or functional assay.

B1: WT mouse IL-18 (ligand, UniProt P70380 36-192, looked up)
chain: NFGRLHCTTAVIRNINDQVLFVDKRQPVFEDMTDIDQSASEPQTRLIIYMYKDSEVRGLAVTLSVKDSKMSTLSCKNKIISFEEMDPPENIDDIQSDLIFFQKRVPGHNKMEFESSLYEGHFLACQKEDDAFKLILKKKDENGDKSVMFTLTNLHQS
In the case of B1, the mouse IL-18 reporter assay EC50, without mouse IL-18BP in assay [1] amounted to 0.61 pM. This molecule also returned a mouse IL-18 reporter assay EC50, +Mouse IL-18BP 50 nM in assay [2] greater than 500 pM.
